Test results reported in article PMC11849118.

Target: T1, CFP-tagged hABHD5 (Human ABHD5-ECFP) (human), Q8WTS1
T1 chain: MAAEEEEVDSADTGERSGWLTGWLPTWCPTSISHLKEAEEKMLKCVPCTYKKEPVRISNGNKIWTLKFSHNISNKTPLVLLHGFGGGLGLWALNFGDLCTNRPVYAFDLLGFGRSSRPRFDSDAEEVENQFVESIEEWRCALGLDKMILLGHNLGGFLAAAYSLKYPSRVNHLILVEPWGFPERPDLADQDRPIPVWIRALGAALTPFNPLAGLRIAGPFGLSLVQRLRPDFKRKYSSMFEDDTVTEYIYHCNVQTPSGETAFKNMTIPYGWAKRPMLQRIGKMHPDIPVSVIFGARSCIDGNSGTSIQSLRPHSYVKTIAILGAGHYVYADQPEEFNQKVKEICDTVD
Experiment: fluorescence cross-correlation spectroscopy (FCCS); live cell dual color FCCS in transfected cells loaded with oleic acid overnight; excitation focused into the center of the cytoplasm; Fc = fraction of diffusers that are multicolored clusters
Conditions: remark: other sources report otherwise

Fc (fraction of diffusers that are multicolored clusters of ABHD5 and PNPLA3): 0.32
percent of ABHD5 codiffusing with PNPLA3: 24%
percent of PNPLA3 codiffusing with ABHD5: 78%
B1: WT hPNPLA3-EYFP, Q9NST1 1-481 (natural protein)
chain: MYDAERGWSLSFAGCGFLGFYHVGATRCLSEHAPHLLRDARMLFGASAGALHCVGVLSGIPLEQTLQVLSDLVRKARSRNIGIFHPSFNLSKFLRQGLCKCLPANVHQLISGKIGISLTRVSDGENVLVSDFRSKDEVVDALVCSCFIPFYSGLIPPSFRGVRYVDGGVSDNVPFIDAKTTITVSPFYGEYDICPKVKSTNFLHVDITKLSLRLCTGNLYLLSRAFVPPDLKVLGEICLRGYLDAFRFLEEKGICNRPQPGLKSSSEGMDPEVAMPSWANMSLDSSPESAALAVRLEGDELLDHLRLSILPWDESILDTLSPRLATALSEEMKDKGGYMSKICNLLPIRIMSYVMLPCTLPVESAIAIVQRLVTWLPDMPDDVLWLQWVTSQVFTRVLMCLLPASRSQMPVSSQQASPCTPEQDWPCWTPCSPKGCPAETKAEATPRSILRSSLNFFLGNKVPAGAEGLSTFPSFSLEKSL
